Assay results reported in the supplement of paper PMC6757056.
± gives the standard deviation of the averaged measurements.

B1: library; a variant is named by its letters at N, in order (parent)
chain: GCUGUCACCGGUGCUUGGUACGUUAUAUUCAGCCGGUCUGAUGAGUCUNNNNNNAGACGAAACAGC

How the values were obtained:
[1] = variants of: B1; assay: FACS-Seq fitted mean relative fluorescence mCherry/BFP without ligand (log10 relative fluorescence); HEK293T overexpressing SLC46A1; higher = higher reporter protein expression; conditions: without (6R,S)-folinic acid; ligand present: no
Experimental: (§1)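 Hammerhead (sTRSV) ribozyme switch libraries with a ligand aptamer grafted on stem I and a randomized N4-6 loop II, cloned into the 3' UTR of mCherry and transiently transfected into HEK293T cells; RNA-Seq 72 h post transfection with ligand added 1 h before transfection; RNA read count / plasmid DNA read count normalized to the non-cleaving sTRSVctl (x100), log10; sequences with >100 DNA reads. FACS-Seq: lentiviral library sorted into 6 bins after 48 h ligand, log-normal fit mean of mCherry/BFP scaled to controls. Printed sequences are partial switch sequences.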

[2] = variants of: B1; assay: normalized RNA/DNA level without ligand (relative to sTRSVctl = 100) (log10 (% of sTRSVctl)); HEK293T overexpressing SLC46A1; higher = less ribozyme self-cleavage, higher mRNA level; conditions: without (6R,S)-folinic acid; ligand present: no
Experimental: as §1

[3] = variants of: B1; assay: FACS-Seq fitted mean relative fluorescence mCherry/BFP with ligand (log10 relative fluorescence); HEK293T overexpressing SLC46A1; ligand concentration (+) FACS-Seq: 6 mM; higher = higher reporter protein expression; conditions: with (6R,S)-folinic acid; ligand present: yes
Experimental: as §1

[4] = variants of: B1; assay: normalized RNA/DNA level with ligand (relative to sTRSVctl = 100) (log10 (% of sTRSVctl)); HEK293T overexpressing SLC46A1; ligand concentration (+) RNA-Seq: 6 mM; higher = less ribozyme self-cleavage, higher mRNA level; conditions: with (6R,S)-folinic acid; ligand present: yes
Experimental: as §1

Row | Variant | FACS-Seq fitted mean (log10) [1] | normalized RNA/DNA level without ligand (log10) [2] | FACS-Seq fitted mean (log10) [3] | normalized RNA/DNA level with ligand (log10) [4]
1 | GCUGUCACCGGUGCUUGGUACGUUAUAUUCAGCCGGUCUGAUGAGUCUGAAGUGAGACGAAACAGC [GAAGUG] | 0.327 ± 0.098 | 1.8629 ± 0.0002 | 0.369 ± 0.033 | 1.99 ± 0.026
2 | GCUGUCACCGGUGCUUGGUACGUUAUAUUCAGCCGGUCUGAUGAGUCUUAAGUGAGACGAAACAGC [UAAGUG] | 0.502 ± 0.074 | 1.6686 ± 0.0006 | 0.881 ± 0.18 | 1.93 ± 0.055
3 | GCUGUCACCGGUGCUUGGUACGUUAUAUUCAGCCGGUCUGAUGAGUCUAAAGUGAGACGAAACAGC [AAAGUG] | -0.0552 ± 0.019 | 1.675 ± 0.0049 | 0.25 ± 0.14 | 1.95 ± 0.031
4 | GCUGUCACCGGUGCUUGGUACGUUAUAUUCAGCCGGUCUGAUGAGUCUCAAGUUAGACGAAACAGC [CAAGUU] | 0.055 ± 0.13 | 2 ± 0.021 | 0.00566 ± 0.18 | 2.03 ± 0.046
5 | GCUGUCACCGGUGCUUGGUACGUUAUAUUCAGCCGGUCUGAUGAGUCUGAAGUUAGACGAAACAGC [GAAGUU] | 0.522 ± 0.18 | 2.007 ± 0.0088 | 0.481 ± 0.2 | 2.04 ± 0.03
6 | GCUGUCACCGGUGCUUGGUACGUUAUAUUCAGCCGGUCUGAUGAGUCUUAAGUUAGACGAAACAGC [UAAGUU] | 0.118 ± 0.029 | 1.952 ± 0.0089 | 0.124 ± 0.17 | 2.01 ± 0.041
7 | GCUGUCACCGGUGCUUGGUACGUUAUAUUCAGCCGGUCUGAUGAGUCUCAAUAAAGACGAAACAGC [CAAUAA] | 0.248 ± 0.034 | 1.934 ± 0.017 | 0.463 ± 0.091 | 1.97 ± 0.031
8 | GCUGUCACCGGUGCUUGGUACGUUAUAUUCAGCCGGUCUGAUGAGUCUGAAUAAAGACGAAACAGC [GAAUAA] | -0.184 ± 0.011 | 1.976 ± 0.0046 | -0.234 ± 0.28 | 1.989 ± 0.016
9 | GCUGUCACCGGUGCUUGGUACGUUAUAUUCAGCCGGUCUGAUGAGUCUAAAUAAAGACGAAACAGC [AAAUAA] | 0.0525 ± 0.017 | 1.94 ± 0.023 | 0.383 ± 0.051 | 1.98 ± 0.038
10 | GCUGUCACCGGUGCUUGGUACGUUAUAUUCAGCCGGUCUGAUGAGUCUGAAUACAGACGAAACAGC [GAAUAC] | 0.463 ± 0.14 | 1.974 ± 0.0095 | 0.313 ± 0.25 | 2 ± 0.053
11 | GCUGUCACCGGUGCUUGGUACGUUAUAUUCAGCCGGUCUGAUGAGUCUAAAUACAGACGAAACAGC [AAAUAC] | 0.31 ± 0.028 | 1.988 ± 0.0076 | 0.0315 ± 0.22 | 2 ± 0.03
12 | GCUGUCACCGGUGCUUGGUACGUUAUAUUCAGCCGGUCUGAUGAGUCUCAAUAGAGACGAAACAGC [CAAUAG] | 0.376 ± 0.018 | 1.942 ± 0.0058 | 0.641 ± 0.16 | 2.011 ± 0.0065
13 | GCUGUCACCGGUGCUUGGUACGUUAUAUUCAGCCGGUCUGAUGAGUCUUAAUAGAGACGAAACAGC [UAAUAG] | 0.255 ± 0.04 | 1.75 ± 0.028 | 0.58 ± 0.11 | 1.96 ± 0.057
14 | GCUGUCACCGGUGCUUGGUACGUUAUAUUCAGCCGGUCUGAUGAGUCUAAAUAGAGACGAAACAGC [AAAUAG] | -0.0965 ± 0.1 | 1.903 ± 0.006 | -0.332 ± 0.53 | 1.98 ± 0.022
15 | GCUGUCACCGGUGCUUGGUACGUUAUAUUCAGCCGGUCUGAUGAGUCUUAAUAUAGACGAAACAGC [UAAUAU] | 0.201 ± 0.005 | 1.922 ± 0.0069 | 0.297 ± 0.077 | 1.99 ± 0.026
16 | GCUGUCACCGGUGCUUGGUACGUUAUAUUCAGCCGGUCUGAUGAGUCUAAAUAUAGACGAAACAGC [AAAUAU] | 0.147 ± 0.058 | 1.949 ± 0.002 | 0.275 ± 0.077 | 2 ± 0.039
17 | GCUGUCACCGGUGCUUGGUACGUUAUAUUCAGCCGGUCUGAUGAGUCUGAAUCAAGACGAAACAGC [GAAUCA] | 0.429 ± 0.13 | 2.017 ± 0.005 | 0.409 ± 0.051 | 2.01 ± 0.03
18 | GCUGUCACCGGUGCUUGGUACGUUAUAUUCAGCCGGUCUGAUGAGUCUAAAUCCAGACGAAACAGC [AAAUCC] | 0.504 ± 0.068 | 2.044 ± 0.013 | 0.398 ± 0.23 | 2.03 ± 0.044
19 | GCUGUCACCGGUGCUUGGUACGUUAUAUUCAGCCGGUCUGAUGAGUCUGAAUCGAGACGAAACAGC [GAAUCG] | 0.149 ± 0.053 | 1.966 ± 0.0024 | 0.372 ± 0.14 | 2 ± 0.022
20 | GCUGUCACCGGUGCUUGGUACGUUAUAUUCAGCCGGUCUGAUGAGUCUAAAUCGAGACGAAACAGC [AAAUCG] | 0.416 ± 0.0066 | 1.955 ± 0.0094 | 0.42 ± 0.12 | 2.03 ± 0.036
21 | GCUGUCACCGGUGCUUGGUACGUUAUAUUCAGCCGGUCUGAUGAGUCUCAAUGAAGACGAAACAGC [CAAUGA] | 0.153 ± 0.14 | 1.998 ± 0.0058 | 0.267 ± 0.16 | 2.02 ± 0.049
